Results reported in the RNAGym collection of RNA variant scans (doi:10.1093/molbev/msab373).

B1: Azoarcus group I ribozyme (parent)
chain: GUGCCUUGCGCCGGGAAACCACGCAAGGGAUGGUGUCAAAUUCGGCGAAACCUAAGCGCCCGCCCGGGCGUAUGGCAACGCCGAGCCAAGCUUCGGCGCCUGCGCCGAUGAAGGUGUAGAGACUAGACGGCACCCACCUAAGGCAAACGCUAUGGUGAAGGCAUAGUCCAGGGAGUGGCGAAAGUCACACAAACCGG

Variants of: B1
Test: reverse-splicing fitness (ratio to wild type); higher = more active; in vitro selection; Mg2+ level not given
Procedure, shortened: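 An in vitro group I ribozyme library with randomized positions was T7-transcribed and gel-purified. In triplicate, 10 pmol RNA in EPPS pH 7.5 was reacted with 50 pmoles of a 30-nt RNA substrate for 1 h at 37 °C across several added MgCl2 levels (1–48 mM), then stopped with EDTA. Products were reverse transcribed from a substrate-complementary primer, PCR-amplified and sequenced (HiSeq 4000). Fitness is a variant's read proportion after selection over that before, normalised to wild type.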

Variant	reverse-splicing fitness
C82A A111G A120C A145G C150G U176G	0.00593
C82A A111G A120C A145G C150G U176A	0.00873
C82A A111G A120C A145G C150G U176C	0.0121
C82A A111G A120G A145C C169G U176G	0.0046
C82A A111G A120G A145C C169G U176A	0.0248
C82A A111G A120G A145C C169G U176C	0.0178
C82A A111G A120G A145C C150A C169A U176A	0.0118
C82A A111G A120G A145C C150A C169A U176C	0.00609
C82A A111G A120G A145C C150A C169A U176G	0.00578
C82A A111G A120C A145G C150A U176A	0.0133
C82A A111G A120C A145G C150A U176C	0.0253
C82A A111G A120C A145G C150A U176G	0.0103
C82A A111G A120C A145U C150G C169U	0.00884
C82A A111G A120C A145U C150G C169G	0.0075
C82A A111G A120C A145U C150G C169A	0.00895
C82A A111G A120C A145G C150G C169A	0.00974
C82A A111G A120C A145G C150G C169G	0.00734
C82A A111G A120C A145G C150G C169U	0.00967
C82A A111G A120G A145U	0.015
C82A A111G A120G A145C	0.0136
C82A A111G A120G A145G	0.0165

Variant	reverse-splicing fitness
C82A A111G A120G A145C U176A	0.0113
C82A A111G A120G A145C U176G	0.00516
C82A A111G A120G A145C U176C	0.0105
C82A A111G A120C A145G C150U U176G	0.00916
C82A A111G A120C A145G C150U U176C	0.0258
C82A A111G A120C A145G C150U U176A	0.0156
C82A A111G A120C A145G C169U U176C	0.0146
C82A A111G A120C A145G C169U U176A	0.0149
C82A A111G A120C A145G C169U U176G	0.00528
C82A A111G A120C A145G C169A U176A	0.0226
C82A A111G A120C A145G C169A U176G	0.00562
C82A A111G A120C A145G C169A U176C	0.0269
C82A A111G A120G A145G C150G C169A U176C	0.0131
C82A A111G A120G A145G C150G C169A U176G	0.00875
C82A A111G A120G A145G C150G C169A U176A	0.0139
C82A A111G A120C A145G C150A	0.0137
C82A A111G A120C A145G C150U	0.0349
C82A A111G A120C A145G C150G	0.0105
C82A A111G A120G A145C C150A C169G U176G	0.00565
C82A A111G A120G A145C C150A C169G U176C	0.0158
C82A A111G A120G A145C C150A C169G U176A	0.027

Variant	reverse-splicing fitness
C82A A111G A120C A145U C150A C169A U176G	0.00712
C82A A111G A120C A145U C150A C169A U176C	0.0134
C82A A111G A120C A145U C150A C169A U176A	0.0196
C82A A111G A120G A145C C150U C169U U176C	0.0113
C82A A111G A120G A145C C150U C169U U176A	0.0203
C82A A111G A120G A145C C150U C169U U176G	0.00537
C82A A111G A120C A145G C169G U176G	0.0054
C82A A111G A120C A145G C169G U176C	0.0275
C82A A111G A120C A145G C169G U176A	0.0216
C82A A111G A120C C150A C169G	0.00973
C82A A111G A120C C150A C169U	0.011
C82A A111G A120C C150A C169A	0.0113
C82A A111G A120C A145G C150U C169G U176G	0.00629
C82A A111G A120C A145G C150U C169G U176A	0.0161
C82A A111G A120C A145G C150U C169G U176C	0.0192
C82A A111G A120G A145G U176C	0.0205
C82A A111G A120G A145G U176A	0.0128
C82A A111G A120G A145G U176G	0.00638
C82A A111G A120C C150U U176A	0.0143
C82A A111G A120C C150U U176C	0.0238
C82A A111G A120C C150U U176G	0.01

Variant	reverse-splicing fitness
C82A A111G A120G A145G C150A C169A	0.0103
C82A A111G A120G A145G C150A C169U	0.00938
C82A A111G A120G A145G C150A C169G	0.00854
C82A A111G A120C C150U C169U U176G	0.00647
C82A A111G A120C C150U C169U U176A	0.014
C82A A111G A120C C150U C169U U176C	0.0125
C82A A111G A120G A145C C150A C169U U176C	0.0117
C82A A111G A120G A145C C150A C169U U176A	0.0207
C82A A111G A120G A145C C150A C169U U176G	0.00484
C82A A111G A120G A145G C150G C169G U176C	0.0114
C82A A111G A120G A145G C150G C169G U176G	0.00614
C82A A111G A120G A145G C150G C169G U176A	0.0101
C82A A111G A120G A145C C150U C169G U176C	0.0123
C82A A111G A120G A145C C150U C169G U176A	0.0242
C82A A111G A120G A145C C150U C169G U176G	0.00597
C82A A111G A120C A145G C150A C169G U176A	0.0211
C82A A111G A120C A145G C150A C169G U176G	0.00711
C82A A111G A120C A145G C150A C169G U176C	0.0242
C82A A111G A120C A145U C169U U176C	0.0131
C82A A111G A120C A145U C169U U176A	0.0152
